Measurements taken from PMC4162405 (Cell reports, 2014).

T1: purified human PALB2 (Partner and localizer of BRCA2) (human, UniProt Q86YC2 1-1186)
T1 sequence (looked up): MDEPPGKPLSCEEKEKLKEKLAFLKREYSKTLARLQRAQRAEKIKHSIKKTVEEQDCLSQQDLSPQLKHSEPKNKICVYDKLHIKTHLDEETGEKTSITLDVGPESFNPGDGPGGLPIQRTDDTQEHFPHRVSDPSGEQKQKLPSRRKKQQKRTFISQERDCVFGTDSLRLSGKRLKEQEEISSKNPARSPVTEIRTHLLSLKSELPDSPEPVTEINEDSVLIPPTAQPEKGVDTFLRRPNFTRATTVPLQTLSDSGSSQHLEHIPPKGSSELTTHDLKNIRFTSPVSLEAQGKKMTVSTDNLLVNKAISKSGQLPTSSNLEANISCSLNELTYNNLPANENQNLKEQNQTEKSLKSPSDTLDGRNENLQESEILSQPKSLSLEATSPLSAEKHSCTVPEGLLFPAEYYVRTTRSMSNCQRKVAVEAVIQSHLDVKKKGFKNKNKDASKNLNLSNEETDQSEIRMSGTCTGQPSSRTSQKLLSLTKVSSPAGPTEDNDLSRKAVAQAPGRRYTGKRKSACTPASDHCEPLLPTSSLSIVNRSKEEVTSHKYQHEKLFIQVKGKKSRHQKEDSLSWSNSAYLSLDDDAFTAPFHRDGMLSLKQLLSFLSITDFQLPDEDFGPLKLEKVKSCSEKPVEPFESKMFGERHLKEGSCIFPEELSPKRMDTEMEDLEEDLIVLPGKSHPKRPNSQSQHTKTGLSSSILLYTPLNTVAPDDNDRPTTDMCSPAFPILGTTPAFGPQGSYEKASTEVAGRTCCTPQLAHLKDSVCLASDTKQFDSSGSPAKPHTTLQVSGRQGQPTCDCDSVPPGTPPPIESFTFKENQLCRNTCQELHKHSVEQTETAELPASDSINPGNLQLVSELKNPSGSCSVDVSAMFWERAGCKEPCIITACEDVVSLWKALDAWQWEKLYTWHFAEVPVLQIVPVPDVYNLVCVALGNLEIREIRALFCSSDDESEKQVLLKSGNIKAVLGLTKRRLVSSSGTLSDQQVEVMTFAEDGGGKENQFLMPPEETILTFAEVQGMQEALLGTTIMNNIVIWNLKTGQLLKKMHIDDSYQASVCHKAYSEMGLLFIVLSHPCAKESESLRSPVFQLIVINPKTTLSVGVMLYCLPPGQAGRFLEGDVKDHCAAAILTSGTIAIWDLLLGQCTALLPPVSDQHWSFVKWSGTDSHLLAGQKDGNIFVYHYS

B1: GST-BRCA2 truncation 4 (residues 1338–1781) (domain or fragment, human, UniProt P51587 1338-1781, looked up)
chain: GSDSSKNDTVCIHKDETDLLFTDQHNICLKLSGQFMKEGNTQIKEDLSDLTFLEVAKAQEACHGNTSNKEQLTATKTEQNIKDFETSDTFFQTASGKNISVAKESFNKIVNFFDQKPEELHNFSLNSELHSDIRKNKMDILSYEETDIVKHKILKESVPVGTGNQLVTFQGQPERDEKIKEPTLLGFHTASGKKVKIAKESLDKVKNLFDEKEQGTSEITSFSHQWAKTLKYREACKDLELACETIEITAAPKCKEMQNSLNNDKNLVSIETVVPPKLLSDNLCRQTENLKTSKSIFLKVKVHENVEKETAKSPATCYTNQSPYSVIENSALAFYTSCSRKTSVSQTSLLEAKKWLREGIFDGQPERINTADYVGNYLYENNSNSTIAENDKNHLSEKQDTYLSNSSMSNSYSYHSDEVYNDSGYLSKNKLDSGIEPVLKNVED
B2: GST-PALB2 WD40 domain (residues 853–1186) (domain or fragment, human, UniProt Q86YC2 853-1186, looked up)
chain: GNLQLVSELKNPSGSCSVDVSAMFWERAGCKEPCIITACEDVVSLWKALDAWQWEKLYTWHFAEVPVLQIVPVPDVYNLVCVALGNLEIREIRALFCSSDDESEKQVLLKSGNIKAVLGLTKRRLVSSSGTLSDQQVEVMTFAEDGGGKENQFLMPPEETILTFAEVQGMQEALLGTTIMNNIVIWNLKTGQLLKKMHIDDSYQASVCHKAYSEMGLLFIVLSHPCAKESESLRSPVFQLIVINPKTTLSVGVMLYCLPPGQAGRFLEGDVKDHCAAAILTSGTIAIWDLLLGQCTALLPPVSDQHWSFVKWSGTDSHLLAGQKDGNIFVYHYS
B3: Polymerase eta (Polη), purified human (enzyme, UniProt Q9Y253 1-713, looked up)
chain: MATGQDRVVALVDMDCFFVQVEQRQNPHLRNKPCAVVQYKSWKGGGIIAVSYEARAFGVTRSMWADDAKKLCPDLLLAQVRESRGKANLTKYREASVEVMEIMSRFAVIERASIDEAYVDLTSAVQERLQKLQGQPISADLLPSTYIEGLPQGPTTAEETVQKEGMRKQGLFQWLDSLQIDNLTSPDLQLTVGAVIVEEMRAAIERETGFQCSAGISHNKVLAKLACGLNKPNRQTLVSHGSVPQLFSQMPIRKIRSLGGKLGASVIEILGIEYMGELTQFTESQLQSHFGEKNGSWLYAMCRGIEHDPVKPRQLPKTIGCSKNFPGKTALATREQVQWWLLQLAQELEERLTKDRNDNDRVATQLVVSIRVQGDKRLSSLRRCCALTRYDAHKMSHDAFTVIKNCNTSGIQTEWSPPLTMLFLCATKFSASAPSSSTDITSFLSSDPSSLPKVPVTSSEAKTQGSGPAVTATKKATTSLESFFQKAAERQKVKEASLSSLTAPTQAPMSNSPSKPSLPFQTSQSTGTEPFFKQKSLLLKQKQLNNSSVSSPQQNPWSNCKALPNSLPTEYPGCVPVCEGVSKLEESSKATPAEMDLAHNSQSMHASSASKSVLEVTQKATPNPSLLAAEDQVPCEKCGSLVPVWDMPEHMDYHFALELQKSFLQPHSSNPQVVSAVSHQGKRNPKSPLACTNKRPRPEGMQTLESFFKPLTH

Experiments:
[1] = molecular target: B3; assay: co-IP
[2] = molecular target: B3; assay: pull-down
[3] = molecular target: T1, purified human PALB2 (Partner and …); assay: co-IP

B1: binds [1].

B2: binds [2].

B3: binds [3].
